From publication PMC12111036

What was measured:
[1] = target: Tyrosine kinase receptor B (TrkB) (not stated (human SH-SY5Y or mouse HT22 cells cultured)) (UniProt Q16620); test: co-IP; control cells without added BDNF; native lysis; IP of 100 μL whole-cell lysate with anti-TrkB or anti-p75 antibody and protein A&G beads at 4 °C; Western blot with anti-BDNF antibody; band intensity in percent of the control WCL band
[2] = target: p75 receptor (not stated (human SH-SY5Y or mouse HT22 cells cultured)) (UniProt P08138); test: as above
p75 receptor (not stated (human SH-SY5Y or mouse HT22 cells cultured)), sequence (P08138 29-427): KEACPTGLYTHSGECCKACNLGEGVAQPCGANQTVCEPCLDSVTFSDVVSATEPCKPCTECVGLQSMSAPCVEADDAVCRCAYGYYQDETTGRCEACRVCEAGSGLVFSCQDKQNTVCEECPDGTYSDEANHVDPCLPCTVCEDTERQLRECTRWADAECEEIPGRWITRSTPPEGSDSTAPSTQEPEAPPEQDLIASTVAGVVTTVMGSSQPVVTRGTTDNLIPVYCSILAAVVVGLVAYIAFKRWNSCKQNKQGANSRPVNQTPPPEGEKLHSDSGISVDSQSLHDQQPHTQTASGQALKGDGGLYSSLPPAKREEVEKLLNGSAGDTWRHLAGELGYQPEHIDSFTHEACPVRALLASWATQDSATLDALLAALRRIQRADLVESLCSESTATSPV

[3] = target: Tyrosine kinase receptor B (TrkB) (not stated (human SH-SY5Y or mouse HT22 cells cultured)) (UniProt Q16620); test: co-IP; cells incubated 48 h with BDNF 1.0 nM, alone or with Aβ42M/Aβ42O 0.2 μM and/or CA/EGCG 100 μM or IG3/BCP 2.0 μM; native lysis; IP with anti-TrkB or anti-p75 antibody and protein A&G beads at 4 °C; Western blot with anti-BDNF antibody; band intensity in percent of the control WCL band
[4] = target: p75 receptor (not stated (human SH-SY5Y or mouse HT22 cells cultured)) (UniProt P08138); test: as above
[5] = target: Amyloid-β protein 1–42 fibrils (Aβ42F) (human) (UniProt P05067); test: ELISA; indirect ELISA; Aβ42 species or HSA (2.0 μM) coated on 96-well plates at 4 °C for 12 h, blocked with 5% nonfat dry milk in TBS; BDNF 20 pg/mL added, 37 °C, 24 h; bound BDNF detected with anti-BDNF antibody; binding rate in percent of the BDNF added; also run with CA/EGCG (50 μM) or IG3/BCP (2.0 μM)
[6] = target: Amyloid-β protein 1–42 protofibrils (Aβ42P) (human) (UniProt P05067); test: as above
[7] = target: Amyloid-β protein 1–42 monomers (Aβ42M) (human) (UniProt P05067); test: as above
[8] = target: Amyloid-β protein 1–42 oligomers (Aβ42O) (human) (UniProt P05067); test: as above

Row | Substance | BDNF on Co-IP beads, percent of control WCL (no BDNF added) [1] [%] | BDNF on Co-IP beads, percent of control WCL (no BDNF added) [2] [%] | BDNF on Co-IP beads, percent of control WCL (BDNF added) [3] [%] | BDNF on Co-IP beads, percent of control WCL (BDNF with Aβ42M and CA/EGCG) [3] [%] | BDNF on Co-IP beads, percent of control WCL (BDNF with Aβ42M and IG3/BCP) [3] [%] | BDNF on Co-IP beads, percent of control WCL (BDNF with Aβ42M) [3] [%] | BDNF on Co-IP beads, percent of control WCL (BDNF with Aβ42O and CA/EGCG) [3] [%] | BDNF on Co-IP beads, percent of control WCL (BDNF with Aβ42O and IG3/BCP) [3] [%] | BDNF on Co-IP beads, percent of control WCL (BDNF with Aβ42O) [3] [%] | BDNF on Co-IP beads, percent of control WCL (BDNF added) [4] [%] | BDNF on Co-IP beads, percent of control WCL (BDNF with Aβ42M and CA/EGCG) [4] [%] | BDNF on Co-IP beads, percent of control WCL (BDNF with Aβ42M and IG3/BCP) [4] [%] | BDNF on Co-IP beads, percent of control WCL (BDNF with Aβ42M) [4] [%] | BDNF on Co-IP beads, percent of control WCL (BDNF with Aβ42O and CA/EGCG) [4] [%] | BDNF on Co-IP beads, percent of control WCL (BDNF with Aβ42O and IG3/BCP) [4] [%] | BDNF on Co-IP beads, percent of control WCL (BDNF with Aβ42O) [4] [%] | binding rate [5] [%] | binding rate [6] [%] | binding rate [7] [%] | binding rate [8] [%]
1 | Endogenous BDNF of the control cells (ligand) | 44.1 | 31.9 | – | – | – | – | – | – | – | – | – | – | – | – | – | – | – | – | – | –
2 | Human brain-derived neurotrophic factor (BDNF) (ligand) | – | – | 85 | 89.3 | 92 | 88.3 | 72.2 | 73.4 | 58.1 | 70 | 73.4 | 83.2 | 71.9 | 62.1 | 61.7 | 64.3 | < 5 | < 5 | > 10 | > 10
